The record followed here is publication PMC7785020, “A unique hormonal recognition feature of the human glucagon-like peptide-2 receptor” (Cell Research, 2020).

Substitutions are numbered along the chain they refer to.

One assay deals with GLP-2R ECL1 (GLP-1R) (UniProt O95838). As to the kind of experiment: radioligand binding; competition on transiently transfected COS-7 cells: unlabeled teduglutide 0.1 nM to 1 μM against 10–15 pM [125I]GLP-2(1–33, M10Y); 4 h, 4 °C; 50 mM HEPES pH 7.4, 1 mM CaCl2, 5 mM MgCl2, 0.5% BSA; three-parameter logistic fit.
Assay [1] addresses GLP-2R N334^ECL2 A (human) (UniProt O95838). Described as above.
Assay [2] concerns the target GLP-2R Y182^1.43A (human) (UniProt O95838). The assay is described as above.
The target of assay [3] is GLP-2R N247^ECL1A (human) (UniProt O95838). Described as above.
The target in assay [4] is GLP-2R Y252^ECL1A (human) (UniProt O95838). The assay is described as above.
Assay [5] addresses GLP-2R W249^ECL1A (human) (UniProt O95838). The assay is described as above.
The target in another assay is T1, GLP-2R R344^5.40A (Homo sapiens, UniProt O95838, R344A).
T1 sequence (O95838 1-553 R344A): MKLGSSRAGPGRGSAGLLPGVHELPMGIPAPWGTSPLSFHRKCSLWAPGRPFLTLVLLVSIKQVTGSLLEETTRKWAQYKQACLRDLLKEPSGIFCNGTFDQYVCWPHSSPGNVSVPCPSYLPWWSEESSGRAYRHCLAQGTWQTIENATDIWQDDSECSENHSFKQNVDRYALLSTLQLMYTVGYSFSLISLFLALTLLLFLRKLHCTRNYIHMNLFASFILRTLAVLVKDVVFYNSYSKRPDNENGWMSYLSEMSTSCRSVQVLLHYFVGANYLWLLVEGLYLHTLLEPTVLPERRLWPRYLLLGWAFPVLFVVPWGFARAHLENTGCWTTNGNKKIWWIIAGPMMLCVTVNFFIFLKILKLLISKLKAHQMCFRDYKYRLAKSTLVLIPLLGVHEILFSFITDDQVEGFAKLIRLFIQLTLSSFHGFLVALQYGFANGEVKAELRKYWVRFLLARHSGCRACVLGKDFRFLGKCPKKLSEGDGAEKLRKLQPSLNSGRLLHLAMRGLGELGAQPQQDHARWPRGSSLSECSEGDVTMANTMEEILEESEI
The assay is described as follows: cAMP accumulation, R344^5.40A. The format is cell-based. The conditions noted are these: Table S3, R344A; HEK 293T, 30 min, RT; mean ± SEM, n ≥ 3 in duplicate; read-out: cAMP Emax (% WT). The protocol: (§1) HEK 293T cells were cultured in Dulbecco’s Modified Eagle’s Medium (DMEM) (Gibco, Waltham, USA) supplemented with 10% (v/v) fetal bovine serum (FBS) (Gibco) and 1% (v/v) sodium pyruvate (Gibco) at 37 °C, 5% CO2 in a humidified incubator. They were seeded onto 6-well cell culture plates and transiently transfected with different GLP-2R constructs using Lipofectamine 2000 transfection reagent (Invitrogen, Carlsbad, CA, USA). After 24 h, the transfected cells were seeded onto 384-well microtiter plates (3000 cells per well) in HBSS supplemented with 5 mM HEPES, 0.1% (w/v) bovine serum albumin (BSA) and 0.5 mM 3-isobutyl-1- methylxanthine, and stimulated with increasing concentrations of GLP-2 for 30 min at RT. Eu and Ulight were diluted by cAMP detection buffer and added to the plates separately to terminate the reaction. Plates were incubated at RT for 60 min before measuring the fluorescence intensity at 620 nm and […] by an EnVision multilabel plate reader (PerkinElmer, Boston, USA).
In general terms: Cyclic AMP is a second messenger, typically raised through Gs and lowered through Gi signalling.

The next assay addresses T2, GLP-2R Y186^1.47A (Homo sapiens, UniProt O95838, Y186A).
T2 sequence (O95838 1-553 Y186A): T1 sequence (O95838 1-553 R344A) with Y186A, A344R
The assay is described as follows: cAMP accumulation, Y186^1.47A. More on the design: WT (1–553); expressed in transfected cells; HEK 293T (cAMP). The conditions noted are these: Table S3, Y186A; HEK 293T, 30 min, RT; mean ± SEM, n ≥ 3 in duplicate; read-out: cAMP Emax (% WT). The format is cell-based. The protocol:
as §1

As for [^125I]GLP-2(1–33, M10Y) (peptide), the % Binding of WT in the assay with GLP-2R ECL1 (GLP-1R) was determined as 1.2%; in assay [1] it was 2%; in assay [2], 3.2%; in assay [3] it was 135%; in assay [4], 6.3%; in assay [5], 2.9%.
Regarding `CC[C@H](C)[C@H](NC(=O)[C@H](Cc1ccccc1)NC(=O)[C@H](CC(=O)O)NC(=O)[C@H](CCCNC(=N)N)NC(=O)[C@H](C)NC(=O)[C@H](C)NC(=O)[C@H](CC(C)C)NC(=O)[C@H](CC(N)=O)NC(=O)[C@H](CC(=O)O)NC(=O)[C@H](CC(C)C)NC(=O)[C@@H](NC(=O)[C@@H](NC(=O)[C@H](CC(N)=O)NC(=O)[C@H](CCSC)NC(=O)[C@H](CCC(=O)O)NC(=O)[C@H](CC(=O)O)NC(=O)[C@H](CO)NC(=O)[C@H](Cc1ccccc1)NC(=O)[C@H](CO)NC(=O)CNC(=O)[C@H](CC(=O)O)NC(=O)[C@H](C)NC(=O)[C@@H](N)Cc1c[nH]cn1)[C@@H](C)O)[C@@H](C)CC)C(=O)N[C@@H](CC(N)=O)C(=O)N[C@@H](Cc1c[nH]c2ccccc12)C(=O)N[C@@H](CC(C)C)C(=O)N[C@H](C(=O)N[C@@H](CCC(N)=O)C(=O)N[C@H](C(=O)N[C@@H](CCCCN)C(=O)N[C@H](C(=O)N[C@H](C(=O)N[C@@H](CC(=O)O)C(=O)O)[C@@H](C)O)[C@@H](C)CC)[C@@H](C)O)[C@@H](C)CC` [Human GLP-2 (1–33)], the results for the Emax at GLP-2R R344^5.40A and at GLP-2R Y186^1.47A were 109 ± 2.8% and 100 ± 2.8%, respectively.

The term Emax denotes the greatest response seen or fitted, relative to the assay's reference.
